The text below walks through data of patent US20210330742A1 (RUN X, published 2021).

The target in this experiment is CDK4 (UniProt P11802 2-303). Kind of experiment: co-IP and immunoblot, time course after serum stimulation. How it is done:
FIG. 2a is a diagram confirming that E2F1 was combined with RUNX3 by measuring the time-dependent formation of BRD2-RUNX3, E2F1-RUNX3, CDK4-RUNX3, Cyclin D1-RUNX3, HDAC4-RUNX3, p16INK4a-CDK4, p21-CDK4, Cyclin D1-CDK4 and HDAC4-CDK4 complexes by immunoprecipitation (IP) and immunoblotting (IB), and the time-dependent phosphorylation of pRB (at Ser-795) and ERK1/2 by immunoblotting (IB).
Transient transfection was performed in all cell lines using lipofectamine plus reagent and lipofectamine (Invitrogen). Cell lysates were incubated with an appropriate monoclonal or polyclonal antibody (2 μg of antibody/500 μg of lysate sample) at 4° C. for 3 hours, followed by incubation with protein G-Sepharose beads (Amersham Pharmacia Biotech, Piscataway, NJ, USA). For the detection of endogenous proteins at 4° C. for 1 hour, the lysate was incubated with an appropriate monoclonal or polyclonal antibody (1:1000-1:3000) at 4° C. for 6 to 12 hours, and then protein G-Sepharose beads (Amersham Pharmacia Biotech) were […] at 4° C. for 3 hours. The immune precipitate was […] on an SDS-polyacrylamide gel electrophoresis (SDS-PAGE) gel and transferred to a PVDF membrane (Millipore, Billerica, Mass., USA). […]
(A western blot detects proteins with antibodies after separation by electrophoresis.)

Sequence of CDK4 (P11802 2-303 limits assumed): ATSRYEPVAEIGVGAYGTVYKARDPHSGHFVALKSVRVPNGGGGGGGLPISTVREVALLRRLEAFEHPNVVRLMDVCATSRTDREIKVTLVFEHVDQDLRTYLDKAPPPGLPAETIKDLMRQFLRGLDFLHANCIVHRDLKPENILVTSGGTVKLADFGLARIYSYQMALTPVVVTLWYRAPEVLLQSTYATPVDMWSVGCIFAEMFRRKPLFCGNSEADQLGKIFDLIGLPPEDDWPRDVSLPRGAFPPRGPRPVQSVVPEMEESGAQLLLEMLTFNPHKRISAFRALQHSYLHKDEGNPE

B1: p16INK4a (other, UniProt P42771 1-156, looked up)
chain: MEPAAGSSMEPSADWLATAAARGRVEEVRALLEAGALPNAPNSYGRRPIQVMMMGSARVAELLLLHGAEPNCADPATLTRPVHDAAREGFLDTLVVLHRAGARLDVRDAWGRLPVDLAEELGHRDVARYLRAAAGGTRGSNHARIDAAEGPSDIPD
As for B1, the binding result is given as “binds”.
